Experimental data reported in patent publication US20210061891A1 (DUKE UNIVERSITY, published 2021).
Ends that are not written are not given here.

Legend:
residue mutated to A: D [1] = target: T1, residue mutated to A: D (3rd column) (also: biotinylated, attachment site not given here); assay: ELISA on streptavidin-immobilized biotinylated 15mer peptides; area under the signal vs antibody concentration curve;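 further: antibody binding to each alanine-substituted peptide expressed relative to binding to the natural peptide, using curve area determined separately for every peptide-antibody pair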
T1 construct: position from the legend (CFH1114-1121)
T1 peptide: GPPPPIANGDITSFP

residue mutated to A: P = target: T2, residue mutated to A: P (also: biotinylated, attachment site not given here); assay: as above
T2 construct: position from the legend (CFH1114-1121)
T2 peptide: GPPPAIDNGDITSFP

residue mutated to A: G = target: T3, residue mutated to A: G (also: biotinylated, attachment site not given here); assay: as above
T3 construct: position from the legend (CFH1114-1121)
T3 peptide: GPPPPIDNADITSFP

residue mutated to A: D [2] = target: T4, residue mutated to A: D (6th column) (also: biotinylated, attachment site not given here); assay: as above
T4 construct: position from the legend (CFH1114-1121)
T4 peptide: GPPPPIDNGAITSFP

residue mutated to A: T = target: T5, residue mutated to A: T (also: biotinylated, attachment site not given here); assay: as above
T5 construct: position from the legend (CFH1114-1121)
T5 peptide: GPPPPIDNGDIASFP

residue mutated to A: I = target: T6, residue mutated to A: I (also: biotinylated, attachment site not given here); assay: as above
T6 construct: position from the legend (CFH1114-1121)
T6 peptide: GPPPPADNGDITSFP

[3] = target: T7, reduced Complement Factor H (CFH treated with TCEP) (human, UniProt P08603 19-1231, disulfide bonds reduced with TCEP); assay: immunoblot (Surf-Blot), CFH treated with TCEP (reduced) before electrophoresis; anti-human IgG-HRP
T7 construct: also called reduced CFH; conformationally distinct form of CFH
T7 sequence (P08603 19-1231 limits assumed): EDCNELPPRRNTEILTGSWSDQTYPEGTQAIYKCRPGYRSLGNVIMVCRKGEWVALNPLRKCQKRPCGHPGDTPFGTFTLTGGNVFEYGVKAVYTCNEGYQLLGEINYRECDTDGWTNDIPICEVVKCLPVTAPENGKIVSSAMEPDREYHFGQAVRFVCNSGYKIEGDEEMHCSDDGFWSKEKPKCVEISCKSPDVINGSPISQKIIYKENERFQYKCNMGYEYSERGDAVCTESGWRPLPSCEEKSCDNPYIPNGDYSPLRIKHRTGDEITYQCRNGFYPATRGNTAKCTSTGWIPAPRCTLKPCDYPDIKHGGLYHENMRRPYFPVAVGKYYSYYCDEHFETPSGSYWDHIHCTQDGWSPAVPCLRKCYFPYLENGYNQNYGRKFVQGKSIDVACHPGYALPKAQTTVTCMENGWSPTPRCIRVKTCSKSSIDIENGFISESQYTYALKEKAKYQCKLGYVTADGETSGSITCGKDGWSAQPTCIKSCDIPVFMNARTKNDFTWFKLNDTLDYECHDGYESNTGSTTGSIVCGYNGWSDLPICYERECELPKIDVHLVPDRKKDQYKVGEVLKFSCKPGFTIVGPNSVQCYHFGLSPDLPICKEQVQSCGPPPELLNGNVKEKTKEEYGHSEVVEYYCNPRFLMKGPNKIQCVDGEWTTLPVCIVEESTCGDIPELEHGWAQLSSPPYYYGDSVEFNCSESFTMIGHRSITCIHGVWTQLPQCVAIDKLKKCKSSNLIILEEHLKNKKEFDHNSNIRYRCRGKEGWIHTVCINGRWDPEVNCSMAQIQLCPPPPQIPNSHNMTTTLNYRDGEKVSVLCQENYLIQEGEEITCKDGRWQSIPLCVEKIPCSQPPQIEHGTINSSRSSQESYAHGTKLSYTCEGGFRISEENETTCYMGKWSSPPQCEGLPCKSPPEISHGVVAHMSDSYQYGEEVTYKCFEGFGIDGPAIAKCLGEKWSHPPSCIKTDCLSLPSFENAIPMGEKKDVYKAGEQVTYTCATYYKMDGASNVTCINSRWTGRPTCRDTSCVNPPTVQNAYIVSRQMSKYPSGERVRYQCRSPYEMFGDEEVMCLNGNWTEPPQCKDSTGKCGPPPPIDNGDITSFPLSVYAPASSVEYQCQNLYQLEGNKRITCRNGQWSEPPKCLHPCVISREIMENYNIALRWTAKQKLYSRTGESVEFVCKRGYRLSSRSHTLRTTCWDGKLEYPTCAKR

[4] = target: T8, native Complement Factor H (CFH) (human, UniProt P08603 19-1231); assay: immunoblot (Surf-Blot), CFH treated with Tris-HCl (oxidized) before electrophoresis; anti-human IgG-HRP
T8 construct: Native, non-reduced CFH; also called native CFH; full-length native CFH
T8 sequence (P08603 19-1231 limits assumed): as above

residue mutated to A: N = target: T9, residue mutated to A: N (also: biotinylated, attachment site not given here); assay: ELISA on streptavidin-immobilized biotinylated 15mer peptides; area under the signal vs antibody concentration curve;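 further: antibody binding to each alanine-substituted peptide expressed relative to binding to the natural peptide, using curve area determined separately for every peptide-antibody pair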
T9 construct: position from the legend (CFH1114-1121)
T9 peptide: GPPPPIDAGDITSFP

B1: Ab7955 (antibody, V domains shown)
VH: LVESGGGVVRPGRSLRLSCVASGFTFNAYGMHWVRQGPGKGLEWLAVISYEGKTVYYADSVKDRFTISRDNSRNTVSLHLNNLRGEDTAVYYCAKGSASAAVLQHWGQGTLVSVTS
VL: MTQSPGSLAVSLGSRATINCKSSRSLLYRSNNKNYLAWYQQKPGQSPRLLIYWASSRESGVPDRFSGGGSGTSFTLTISSLQAEDVAVYYCQQYFNPPWTFGQGTKVEIK
notes: Recombinant human mAb
B1 was tested, and the “percent of binding to the natural peptide (AUC)” value (shortened to “percent of binding”) (residue mutated to A: D [1]) was 81%, the “percent of binding” value (residue mutated to A: P) was 52% and the “percent of binding” value (residue mutated to A: G) was 104%. For the same binder, the “percent of binding” value (residue mutated to A: D [2]) was 103%.

B2: CFH mAb7968 (antibody, V domains shown)
VH: LVESGGGVVQPGRSLRLSCAASGFTFSRYGMHWVRQAPGKGLEWVAVMSYDGSTKYYADSVKGRFAISRDNPKNTLFLQMNSLRPDDTAVYYCAKGGAAAAVMDVWGKGTTVTVSS
VL: MTQSPDSLTVSLGERATISCKSSQRLLYSSNNKNYLAWYQQKPGQPPKLLMYWASTRESGVPDRFSGSGSGTDFSLTISSLQAEDVAVYYCQQYYNPPWTFGQGTKVEVK
notes: also called CBAb1
With B2 the “percent of binding” value (residue mutated to A: D [1]) was 102%, the “percent of binding” value (residue mutated to A: P) was 73% and the “percent of binding” value (residue mutated to A: G) was 100%. For the same binder, the “percent of binding” value (residue mutated to A: T) was 54%, the “percent of binding” value (residue mutated to A: D [2]) was 101% and the “percent of binding” value (residue mutated to A: I) was 73%.

B3: Ab7961/293i (antibody, V domains shown)
VH: LVESGGGVVQPGKSLRLSCVASGFTFSSYGMHWVRQAPGKGLEWVAVMSFDGKTKYYADSVKGRFTISRDNPKNTLYLQMNSLRSEDTAVYYCAKGGAAAAVFDSWGQGILLTVSS
VL: MTQSPNSLAVSLGGRATINCKTSQSILYRSNNKNYLAWYQHKSGQPPKLLIYWASTRESGVPDRFSGSGSRTDFTLTISGLQAEDVAVYYCQQYYNPPWTFGQGTKVEIK
notes: Recombinant human mAb
In the case of B3, the binding result [3] is reported as “binds”, the “percent of binding” value (residue mutated to A: D [1]) is reported as 100% and the “percent of binding” value (residue mutated to A: P) is reported as 56%. For the same binder, the “percent of binding” value (residue mutated to A: G) was 104%, the “percent of binding” value (residue mutated to A: T) was 16% and the “percent of binding” value (residue mutated to A: D [2]) was 105%. The “percent of binding” value (residue mutated to A: I) was 52% and the binding result [4] was “binds”.

B4: Ab7979 (antibody, V domains shown)
VH: LVESGGGVVQPGKSLRLSCVASGFTFSTYGMHWVRQAPGKGLEWVAVMSFDGKTKYYADSVKGRFTISRDNPKNTLYLQMNSLRSEDTAVYYCAKGGAAAAVFDSWGQGILLTVSS
VL: MTQSPNSLAVSLGGRATINCKTSQSILYRSNNKNYLAWYQHKPGQPPKLLIYWASTRESRVPDRFSGSGSRTDFTLTISGLQAEDVAVYYCQQYYNPPWTFGQGTKVEIK
notes: Recombinant human mAb
In the case of B4, the binding result [3] is reported as “binds”, the “percent of binding” value (residue mutated to A: D [1]) is reported as 96% and the “percent of binding” value (residue mutated to A: N) is reported as 29%. For the same binder, the “percent of binding” value (residue mutated to A: P) was 64%, the “percent of binding” value (residue mutated to A: G) was 102% and the “percent of binding” value (residue mutated to A: D [2]) was 98%. The “percent of binding” value (residue mutated to A: I) was 61% and the binding result [4] was “binds”.

B5: Ab7960/293i (antibody, V domains shown)
VH: LVESGGGVVQPGKSLRLSCVASGFSFSTYGMHWVRQAPGKGLEWVAVMSFDGKTKYYADSVKGRFTISRDNPKNTLYLQMNSLRSEDTAVYYCAKGGAAAAVFDSWGPGILLTVSS
VL: MTQSPNSLAVSLGGRATINCKASQSILYRSNNKNYLAWYQHKAGQPPKLLIYWASTRESGVPERFSGSGSRTDFTLTINGLQAEDVAVYYCQQYYNPPWTFGQGTKVEIK
notes: Recombinant human mAb
In the case of B5, the binding result [3] is reported as “binds”, the “percent of binding” value (residue mutated to A: D [1]) is reported as 95% and the “percent of binding” value (residue mutated to A: P) is reported as 53%. The “percent of binding” value (residue mutated to A: G) was 99%, the “percent of binding” value (residue mutated to A: D [2]) was 99% and the “percent of binding” value (residue mutated to A: I) was 43%. B5: binds [4].

B6: Ab7957/293i (antibody, V domains shown)
VH: LVESGGGVVPPGKSLRLSCAASGFTFSLYGIHWVRQAPGKGLEWVAVISYDGNTKYYTDSVKGRFTISRDNAKNTIYLQMNSLRLDDTAVYYCAKGAANSATFDFWGRGTMVTVSS
VL: MTQSPDSLTLSLGERATINCRSSRTVLYRSNNKNYLAWYQHKPGQPPKLLMSWASTRETGVPDRFSGSGSGTHFTLTITSLQPEDVAVYYCQQYYSPPWTFGQGTKVEIR
notes: Recombinant human mAb
For B6, the binding result [3] was “binds”, the “percent of binding” value (residue mutated to A: D [1]) was 100% and the “percent of binding” value (residue mutated to A: N) was 30%. For the same binder, the “percent of binding” value (residue mutated to A: P) was 61%, the “percent of binding” value (residue mutated to A: G) was 99% and the “percent of binding” value (residue mutated to A: T) was 48%. For the same binder, the “percent of binding” value (residue mutated to A: D [2]) was 102%, the “percent of binding” value (residue mutated to A: I) was 61% and the binding result [4] was “binds”.

B7: Ab7964 (antibody, V domains shown)
VH: LVESGGGVVQPGRSLRLSCAASGVTFSRYGMHWVRQAPGKGLEWVAVISYDEKTKYYADSVKGRFTISRDNSKNTLFLHMNRLRYEDTAVYYCAKGASSGAYFDYWGQGTLVTVSS
VL: not shown
notes: Recombinant human mAb
B7 was tested, and the binding result [3] was “binds”, the “percent of binding” value (residue mutated to A: D [1]) was 100% and the “percent of binding” value (residue mutated to A: P) was 74%. The “percent of binding” value (residue mutated to A: G) was 100%, the “percent of binding” value (residue mutated to A: T) was 66% and the “percent of binding” value (residue mutated to A: D [2]) was 102%. The “percent of binding” value (residue mutated to A: I) was 76% and the binding result [4] was “binds”.
